The text below walks through data of article PMC10774353, “Multi-scale structures of the mammalian radial spoke and divergence of axonemal complexes in ependymal cilia” (Nature Communications, 2024).

First the molecules themselves.
T1: Rsph4a (mouse, UniProt Q8BYM7 1-716)
T1 construct: Rsph4a (radial spoke head protein 4 homolog A), mouse, NM_001162957; Two copies stand in each RS head
T1 sequence: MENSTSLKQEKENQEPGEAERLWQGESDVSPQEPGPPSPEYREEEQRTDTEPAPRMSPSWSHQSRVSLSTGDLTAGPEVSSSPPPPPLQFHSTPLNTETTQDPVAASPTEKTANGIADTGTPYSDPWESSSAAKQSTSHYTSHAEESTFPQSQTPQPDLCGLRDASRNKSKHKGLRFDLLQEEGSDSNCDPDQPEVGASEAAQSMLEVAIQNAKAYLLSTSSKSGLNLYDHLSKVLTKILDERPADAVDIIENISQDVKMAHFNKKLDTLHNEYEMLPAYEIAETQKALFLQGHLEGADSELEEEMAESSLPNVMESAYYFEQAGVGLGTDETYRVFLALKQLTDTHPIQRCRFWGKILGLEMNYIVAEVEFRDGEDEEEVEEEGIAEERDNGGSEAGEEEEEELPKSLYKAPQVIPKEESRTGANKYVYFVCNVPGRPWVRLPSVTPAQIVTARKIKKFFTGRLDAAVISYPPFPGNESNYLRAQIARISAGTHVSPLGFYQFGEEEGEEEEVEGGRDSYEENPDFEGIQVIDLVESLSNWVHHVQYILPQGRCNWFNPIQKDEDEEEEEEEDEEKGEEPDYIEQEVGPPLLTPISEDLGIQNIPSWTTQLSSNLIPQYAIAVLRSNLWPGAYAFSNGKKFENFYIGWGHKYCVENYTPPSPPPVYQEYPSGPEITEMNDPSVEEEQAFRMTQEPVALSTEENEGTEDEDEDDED

B1: Rsph9 (natural protein, mouse)
chain: MDADSLLLSLELASGSGQGLSPDRRASLLTSLMLVKRDYRFARVLFWGRILGLVADYYIAQGLSEDQLAPRKTLYSLNCTEWSLLPPATEEMAMQISVVSGRFMGDPSHEYEHTELQKVNEGEKVFDEEVVVQIKEETRLVSIIDQIDKAVAIIPRGALFKTPFGVTHVNRTFEGLPLSEVRKLSSYFHFREAIDLKNKTLLEKSDLEPSLDFLDSLEYDIPRGSWSIQMERGNALVVLRSLLWPGLTFYHAPRTKNYGYIYVGTGEKNMDLPFML
notes: Rsph9 (radial spoke head protein 9 homolog), mouse, NM_029338; non-tagged, in pcDNA3.4; Two copies stand in each RS head; Non-tagged
B2: FLAG-tagged Rsph16 (natural protein, mouse, UniProt Q80Y75 1-316, looked up)
chain: MGLDYYAVLQVTRNSEDAQIKKAYRKLALKNHPLKSSEPGAPEIFKQIAEAYDVLSDPVKRGIYDKFGEEGLKGGIPLEFGSQTPWTTGYVFHGNPDKVFHEFFGGDNPFSEFFDAEGNDIDLNFGGLWGRGVQKQDPPIERDLYLSLEDLFFGCTKKIKISRRVLNEDRYSSTIKDKILTIDVRPGWRQGTRITFEKEGDQGPNIIPADIIFIVKEKLHPRFRREHDNLFFVYPIPLGKALTCCTVEVKTLDDRLLNIPINDIVHPKYFKIVPGEGMPLPENPSKKGDLFIFFDIQFPTRLTPQKKQMLRQALLT
notes: Rsph16 (homologue of HSP40, DnaJ family), mouse, NM_153527; full-length gene amplified from cDNAs of mouse ependymal cells, in pcDNA3.4; Stands as a homodimer (the arch bridge Rsph16-Rsph16') in both the head-neck monomer and the head-neck dimer; not shown: 3xFLAG, N-terminal, kept
B3: Rsph23 (natural protein, mouse)
chain: MEVSMPLPQIYVEKTLALIKPDVVDKEEEIQDIILGSGFTIIQRRKLHLSPEHCSNFYVEQYGKMFFPNLTAYMSSGPLVAMILARHKAISYWKELMGPSNSLVAKETHPDSLRAIYGTDELRNALHGSNDFAASEREIRFMFPAVIIEPIPIGQAAKDYINLYVAPTLLQGLTELCKEKPPDPYLWLADWLMKNNPNKPKLCHFPVTEEP
notes: Rsph23, mouse, NM_080637
B4: Rsph3b (natural protein, mouse)
chain: MTDRNPRTAEASGLYTYSSRPRAVACQRRRHRDSILQPVEEPMSYGNIMYDRRVIRGNTYALPTGQVPGQPDPLELQRQQQARRRALARKRAQEQLKPRTPEPVEGRKHVDIQTELYLEEIADRIVEVDMECQTDAFLDRPPTPLFIPAKTGKDVATQILGGELFDFDLEVKPMLEVLVGKTIEQSLLEVMEEEELANLRARQYAYEEIRNVELAEVQRLEEQERRHREEKERRKKQQWEIVHKRNETLQKISALIFARQYLANLLPSVFDKLRNSGFFYDPIERDIEVGFLPWLMNEVEKSMEHSMVGRTVLDMLIRDVVERRINDYEHKEAMPPGQKTNVINGPNTVTDPSVTTLHTQKPVLDRVSSQPAPSQERKPVEEGGHLMAE
notes: Rsph3b (radial spoke head protein 3 homolog B), mouse, NM_001083945; non-tagged, in pcDNA3.4; Non-tagged

Common to all, as to assay: cryo-EM structure; RS head-neck complex co-expressed in HEK293F, purified by Strep-Tactin then anti-FLAG beads, cross-linked by GraFix (0-0.1% glutaraldehyde, 10-40% glycerol, 4 °C); monomer map 3.28 Å, dimer map 3.57 Å
The data set “FLAG-tagged Rsph16” concerns the target B2. The conditions noted are these: both partners purified.
Another data set concerns the target T1, Rsph4a. The note with it: both partners purified.
Data set [1] deals with the molecule itself.
The data set “Rsph3b” deals with B4. The note with it: both partners purified.

As for B1, the binding result in the data set with FLAG-tagged Rsph16 and with Rsph4a was “binds” throughout.

For the molecule B2, the “stoichiometry N” value in data set [1] was 2. As for B3, the binding result in the data set with FLAG-tagged Rsph16 and with Rsph3b was “binds” each time. B4: the binding result in the data set with Rsph4a is listed as “binds”.

A word on the stoichiometry N: it is the number of molecules, sites or subunits per partner or assembly.
